Laboratory results from the DeepSol protein solubility set.

Assay: soluble on expression in E. coli; label from the status in PepcDB or PDB records

Soluble on expression in E. coli, not soluble:
MPINGIKIKNSSGEEVYVLKEKGSVVNFGREKKVCHITFDPHAARVSRIHASIEWGDEGLFFTDKSKEGTEINGTRLKQSSQELHEGVYQLAIGGISMTLEVDGDELEETVIDSPQPDESSTVPETVYEESRYSNSSIKEMPAVEVTDDE
ELQVLDTWQGDVVRDTKTLSGGESFLVSLALALALSDLVSHKTSIDSLFLDEGFGTLDSETLDMALDALDNLNASGKMIGVISHIEAMKERIPVQIKVTKRSGLGVSELEKQYKKVS
MGSDKIHHHHHHMEVIDLLFSLTPKTKKEDLFDRERELKDLEKLLETYPIVVITGLRRVGKSSLVKVFLNKSDLLHITVDGRRLYETSGGNISSHHLTRFLGEELSRISKSQKLLNVLKRVRGITVSGTSIELNPKEFSLSDLLEKLNETAKRRKKKIVIFFDEAQYLRYYGSRGGNDLLALFAYCYDNFENVRFIISGSEVGVLHDFLKLEDYSSPLHGRGIGFLTVRPFTFDQSVDFLMEGFREVGEKINFDVEEIVREIDGIVGYLVLFGVKYLEKKKKDEALKEVFHAVKALFEKEMEELRKRSERYPFILRQIARGINTWSALKNIFRAKGDFIGDSRLYSLLETLEKMSFIEKTQSGYRIVDPVFERILRE
MGSDKIHHHHHHMQLEVMEHYGIIKYFRDADYFETEHQRRIFNQLKKVIPEGQLIALSGVVGSGKTTTLSRLQDLLAKEKKVIVAKSLSVEKTKTNLGTLITALFYDVSGDKDYRVPKLGEKRERELRDLIQDVKKPVVLLVDEAHDLHHRTLTGLKRLMEVIRDGGGKLSILLAGHPKLKNDLKGPTMEEVGYRTIVVSLDAMQGNLREYVYWLLDNCTDDKTKPTDVIEEQAIDYLVERLTTPLQIEQHLSLALEEGFNVGVKPITVDVLDLTLSRRINDIEPRLIRHGYSEKVLVDQFHYKPAELRKFFKGELDANRVKEITQDLREAGLPI
MSLKYNNCVIGSRSVFPPRGLQETNIGIVHISDINHYYTLNLSRKIENHLSKLTGAGTGDSVEDSMFLATMEAYERLANSIPVSQQVIASQEELGDLAVPLSDFPKMNQSETSSNGIEKKYLRWSESYNLTDQSRCYIPQVYINLYTHFNYNGEGLTHPISTGCAIHQDYTRAVINGIYEVIERDGIALFWLLKRPLKKLDKQEFIDDLEIFSSPFLGKTTLYDASTINGVYTFCLRAETHFSESIRNVVMFSSNTCPKEAISKLKKELISVIYSLANGIEKQSNLLKQDPMSFYHVDEGALYMAHPSKAYAFEFLNNSSKGSIPTNEIQFSSYGEELRYLIKKLEGLGHKVYVTNLSNRECEENQLKAVKVTIPSLQPISFVHSAREGHHHHHH
MASGDITRYVITVTFHEDSLTEINELNNHLTRSGFLLTLTDDEGDVHELGTNTFGFVSAQSADEIKALVAGLAKSALDKDVDITVATWEAWSKNAQ
MGSDKIHHHHHHMSGAKVISVMNWKGGVGKTTMTHHLGTGLHMLTKEERLEYLGSEKMPRILFVDNDAQCNLSISCLHVEKYEDLVYKQNIPTIYDLYKLFICNESPVVDMHNYIIKNQVRMDNRRIFMGMDLLPAHQELVYLDMNIAMNSRASFQSGLISKEIYKYQYLNDILEPVCSDYDYIFIDCPPNLGYTTLNALYASEYCLIPTGLDHLSSYGIASLLKEIDRLNTEFATAVPDHPMIEVVGIVANNVEENREAPKRSQKLIRERLQDSYHELMFEPYLTRGDGIPNASEQGYPVYADRSANALKQGDLLLGILREFLDRI
MSKIETPVMTSLQTTAEKMMKDLNVPGAAVAVIKDGEVIISEGFGYRNIETKEAVTPNTRFAIGSSTKAFGTLSLSLLAQQKKFNWDTPIQSYIPNFTLSELLASSQVTGRDLASHRTGVSRHEALWYSSSLSRKDLVEKIKHLPLDAPFRTAFLYNNLMYATISYIVENITNQTWEQYTTEHILEPLNMRHTNFSVNDSQTTDDYALPYIENDGEIKAVPFRNIDTVGAAGCINSTIEDMANWVLLHLNEGKFGDHELISSELLQQMYTPHNSIPDQPVLSLPESPLNSYGLGWFISAYRGKKVIHHGGNIDGFSALVSFIPTENIGLVILTNAGGTLLPTYLANQIYDELLELESIDWHKRAVEDTKKMKEMMKEATESLPEQIKGTTPSHKLEDYTGTFEHPAYGTLQVYKRDDSLYVQFMEMDIQLGHHHYDIFSAKVDLFQMKMSLLFAYEMNVSGEFPSLQLHVPATLSTQPLTFKKIK
GPGSMSERDKQRRSLERERMATVIFSYISHLMRTHEEETTVADEFIPSTKFFRTETLPNISLIHYVRRVVEHMNCSPEAYIFALAYIRRLFVAGFPLHTHSIYRLLLTAVVVATRVRDDFLFSKKYYSKVGGVTACDLNMMEIHFLADLLEYRVEVSPDEYRVLCNEITALLSSEVSKFDGNSSNPNNDTAAEGVASIQEPVGNSKPRWMSECCLYW
MGSDKIHHHHHHMTTSTPSASPLALSPSRANDYQQCPLLYRFRAIDKLPEPKTVAQVKGTLVHAVLEEMHGWPRNERLFPAAVKRLKPHWSLMCSKDTELVSLVPEEDTYDFLVECRSLLRGYFEMENPQGFDALACEMYVNATLPNGVPIRGFIDRVDKAPTGEIRVVDYKTGKKPIPRFSQQAQFQMRFYALVYWRIYGRIPDQLRLMYLKVADSMFLTPSREELEYFERDIQELWEKIVTDGETGQFRPKTSKLCGWCSFQNLCPAFDGTPPAYPGWPGIADAPPCSTVDASKGLTG
MGSDKIHHHHHHMLSIAIAAEFELSEKIVETLEQTQLEIESLTIIEIKPFKEEQGIRFNNKAVVQIMPEEADWTEFNYVLFAGTIEHVDLLAKIADSGCIVIDVLGICASLANIPVVVPGINDDQLIELRQRNIVSLPNPQVTQCALAISNIVNSIHQLVVTSLLPASYVEAEQVAKLAGQTAQLLNGIPLDTEQQRLAFDVFPVQTQNLVIQLQKIYPQLENIVFHQIQVPVFYGMGQFVTALSDYLVDIESQLHFWQENELIQYHAEKLITPVTHGENENNEEKVKLHISTLSAAENKIEFWSVADEQHFNLALMAVKLLELIG
MGSDKIHHHHHHMDVIKQIQQAIVYIEDRLLEPFNLQELSDYVGLSPYHLDQSFKMIVGLSPEAYARARKMTLAANDVINGATRLVDIAKKYHYANSNDFANDFSDFHGVSPIQASTKKDELQIQERLYIKLSTTERAPYPYRLEETDDISLVGYARFIDTKYLSHPFNVPDFLEDLLIDGKIKELRRYNDVSPFELFVISCPLENGLEIFVGVPSERYPAHLESRFLPGKHCAKFNLQGEIDYATNEAWYYIESSLQLTLPYERNDLYVEVYPLDISFNDPFTKIQLWIPVKQSPYDED
MNRLHRWNWLVLSAALVTLPFTTPTQAAGVSVSQGSSASLSQAELEQMLAPIALYPDSLLSHILIASTYPLELVQAQRWLEDHPKLSVEQVMSRTEDKGWDPSVKALMAFPNVLQKMSEDLDWTQRLGEAFLANEGQVMDGIQSLRQQADKANSLANMDNMAVTRANNQIIIEPVRREVVYVPYYDPRVVYGTWRWGVAYPPVYWQFGGYVGNPYRPSHSYFYWSPGIHISFNYFFSSFHWHRHKVVVIDHHHSHHYRPRERYSVSHGAQPWKHKPEHRRGVAYHHPVVKERYYSDSKYRGRDSHSSGSGQHFTSQYAKSREHQDTRDNRDNQRDDKRHDKDRGNQYSRERTPNLQHTQAELKERRATPMDSSQTHRENYQREHRQKERNDNGRHDNQVRQNQAKTMREQTNDTWQRQYQQREYQSSDQQPRHVETRAQPQRHEARPEVRRPEPQRIEQPRQAQPRQREEVRTRPSESRQHTQCGA

Soluble on expression in E. coli, soluble:
MIRFAVIGTNWITRQFVEAAHESGKYKLTAVYSRSLEQAQHFANDFSVEHLFTSLEAMAESDAIDAVYIASPNSLHFSQTQLFLSHKINVICEKPLASNLAEVDAAIACARENQVVLFEAFKTACLPNFHLLRQALPKVGKLRKVFFNYCQYSSRYQRYLDGENPNTFNPAFSNGSIMDIGFYCLASAVALFGEPKSVQATASLLASGVDAQGVVVMDYGDFSVTLQHSKVSDSVLASEIQGEAGSLVIEKLSECQKVCFVPRGSQMQDLTQPQHINTMLYEAELFATLVDEHLVDHPGLAVSRITAKLLTEIRRQTGVIFPADSVKL
MASHMERDPQVAGLKVPPHSIEAEQSVLGGLMLDNERWDDVAERVVADDFYTRPHRHIFTEMARLQESGSPIDLITLAESLERQGQLDSVGGFAYLAELSKNTPSAANISAYADIVRER
MSTNPSQLVAADRIGFARLTKRAFDGENLYPLWQELMSKTDAGTATAGEQLDLALITQLFGHKQAGLSVQTETLKQQQLFRSPCASDNPRLRVLALAADIDMGGNTPIEFLLQDSGIELQTLYVIDGVPLPDPLPAHDVAIVIASDSDECMSALAAIEARVANWPAPLLNPPHLIRHLDRDKLYRLIGDIEGLEIPDTISVGRDTLVAAANGSATLPEVTGGVDFPIIVRPRGSHAGFGLARITDSVALLDYLRDRQESDYFIARYVDYASDDGQFRKYRVVVVDGKPYACHMAIANRWDIWYLNAGMAEDEVKRLEEAAFFHTFDFGFALRHKTALDGMIERIGLDYFTIDCAQTPRGDLLVFEIDNTAVVHDMDSPELYPYKPPQMHKIFDAFASMLERRVASRLTSVAAAALEHHHHHH
MPQDPRHPEHQYLDLVKHILENGARRMDRTGTGTLSVFGATMRFSLEDNTFPLLTTRRVFYRGVVEELLFFLRGETDSKVLEKKGVRIWEKNGAKQFLQSVGIDREEGDLGPIYGFQWRHFGARYETSASSYEGKGVDQIASAIAAIRANPASRRIVVSAWNPTDLGSMALPPCHVLFQFNVTDGKLSCAMYQRSGDMGLGVPFNIASYSLLTILVAHLTGLQPGEFVHFLGDAHVYLDHVDSLRQQIQRPPRAFPKLFVSPKGPRTEPEHFQYEDFELVGYDPHPAIKMNMSA
MKLKVTVNGAGKAGEGEIPAPLAGTVSKILVKEGDTVKAGQTVLVLEAMKMETEINAPTDGKVEKVLVKERDAVQGGQGLIKIG
MSLTKEAIISYLSSDLFKGVGKKTAQNIVNTLGDNAINDILDDHSVLEKVSGLSKKKQKQIAEQISANQESEKIMIRLHDLGFGPKLSMAIYQFYLGDTLTILDRNPYQLIYDIKGIGFNKADQLARNIGIAYNDNERLKAALLYTLEEECIKQGHTYLPINVVIDLTVDVLNYQDEEVIEPEKLDEMLQYLNEEKRLIIDNEQVAIPSLYYSEIKSVQNLFRIKTHTNKLTEIEQSDLQMHIGEIEDANQVNYAASQKEALQTAINSKVMLLTGGPGTGKTTVIKGIVELYAEIHGLSLDYDDYVNDDYPVVLAAPTGRASKRLQESTGLEAMTIHRLIGWNQDTKPEDILENEINARLIIIDEMSMVDTWLFHQFLSAVPLDAQLIFVGDEDQLPSVGPGQVFKDLIESKAIPRVNLTEVYRQQDGSSIIELAHRMKLGQKIDITQRFHDRSFINCQANQIPTVVEKVVTSAVNKGYTMADIQVLAPMYKGNAGIKRLNQVLQDILNPKKKDTREIEFGDVVFRKGDKVLQLVNRPNDNIFNGDIGVIVGIFWAKENALNKDVLVVDFEGNEITFTKQDMMELTHAYCTSIHKSQGSEFPIVIMPIVKQYFRMLQRPILYTGLTRAKTSLVLLGDPEAFDIGLKTNGQARLTQLCTLLKNYFNSEGHHHHHH
